Experimental findings from US20060246541A1 are described below.

For the experiment, the target named is GPIIb/IIIa (integrin αIIbβ3). Briefly: cell-based or functional assay.

As for “native contortrostatin (from UniProt Q805F6 419-482) (ligand)”, the IC50, inhibition of ADP-induced platelet aggregation was 0.06 µM.
